Laboratory results from patent publication US20050069542A1 (Human Genome Sciences, published 2005).
Residue numbers refer to the chain shown, from its start.

B1: GMBC618 (scFv)
scFv: EVQLVQSGGGLVKPGGSLRLSCAASGFKFDDAWMNWVRQAPGKGLEWVGRIKSKRSGGTIDYAAPVKDRFTISRDDSKNTLYLQMNSLRTEDTALYYCTWDWDFYYGMNVWGRGTLVTVSSGGGGSGGGGSGGGGSQSVLTQPPSASGTPGQRVTISCSGSSSNIGSNTVNWYQRLPGAAPQLLIYNNDQRPSGIPDRFSGSKSGTSGSLVISGLQSEDEADYYCASWDDSLNGRVFGGGTKLTVLG
B2: GMBC638 (scFv)
scFv: QVQLVQSGGGLVKPGESLRLSCEASGFEFNYAWMSWVRQAPGKGLEWVGRSRSVASGGTTDYAAPLQDRFTISRDDSKNTLYLQVNSLKIEDTGVYFCKWEKSEYYGMDVWGRGTMVTVSSGGGGSGGGGSGGGGSQSVLTQPASVSGSPGQSITISCTGTSSDVGGYNYVSWYQQHPGKAPKLMIYEGSKRPSGVSNRFSGSKSGNTASLTISGLQAEDEADYYCSSYTTRSTRVFGGGTKLTVLG
B3: GMBC626 (scFv)
scFv: B2 scFv with Q1E, V54E, M116P, Q217R, R232K, R235Q
B4: GMBC659 (scFv)
scFv: B2 scFv with Q6E, V54E, M116L
B5: GMBC604 (scFv)
scFv: EVQLVQSGAEVKKPGESLRISCKGSGYTFTNYWINWVRQVPGKGLEWMGMIDPTDSYAKYSPSFQGHVTISTDKSVSTAYLQWRSLQASDSAIYYCVRGYSYDLDYWGKGTLVTVSSGGGGSGGGGSGGGGSQSVLTQPASVSGSPGQSITISCTGTSSDVGGYNYVSWYQQHPGKAPKLMIYEGSKRPSGVSNRFSGSKSGNTASLTISGLQAEDEADYYCSSYTTRSTRVFGGGTKLTVLG
B6: GMBC619 (scFv)
scFv: EVQLVESGGGVVQPGRSLRLSCAASGFTFRSYGMHWVRQAPGKGLEWVAVITYDGSNKYYADSVKGRFTISRDNSKNTLYLQMNSLRADDTAVYYCARDGGGWYHPRLDYWGQGTMVTVSSGGGGSGGGGSGGGGSSELTQDPAVSVALGQTVRITCQGDSLRSYYASWYQQKPGQAPVLVIYGKNNRPSGIPDRFSGSSSGNTASLTITGAQAEDEADYYCNSRDSSGNHVVFGGGTKLTVLG
B7: GMBC617 (scFv)
scFv: EVQLVETGGGLVQPGGSLRLSCAASGFTVSSNYMSWVRQAPGKGLEWVSVIYSGGSTYYADSVKGRFTISRHNSKNTLYLQMNSLRAEDTAVYYCARGLWFGELLYWGQGTLVTVSSGGGGSGGGGSGGGGSQSALTQPASVSGSRGQSITISCTGTTGDVGGYDYVSWYQQHPGKAPKLLIYGNSNRPSGVPDRFSASKSGNTASLTISGLQAEDEADYFCSTYAPPGIIMFGGGTKLTVLG
B8: GMBC621 (scFv)
scFv: EVQLVQSGGGVVQPGRSLRLSCAASGFTFSSYGMHWVRQAPGKGLEWVAVISYDGSNKYYADSVKGRFTISRDNSKNTLYLQMDSLRAEDTAVYFCAKRGLWTPIDYWGKGTLVTVSSGGGGSGGGGSGGGGSSELTQDPAVSVALGQTVRITCQGDSLRSYYASWYQQKPGQAPVLVIYGKNNRPSGIPDRFSGSNSGNTASLTITGAQAEDEADYYCNSRDSSGNHVVFGGGTKLTVLG
B9: GMBC620 (scFv)
scFv: EVQLVESGGGLVKPGGSLRLSCAASGFTFSDAWMNWVRQAPGKGLEWVGRIKSKGSGGTIDYAAPVKDRFTISRDDSKNTLYLQMNSLKTEDTALYYCTWDWDFYYGMNVWGRGTMVTVSSGGGGSGGGGSGGGGSQSVLTQPASVSGSPGQSITISCTGTSSDVGGYNYVSWYQQHPGKAPKLMIYEGSKRPSGVSNRFSGSKSGNTASLTISGLQAEDEADYYCSSYTTRSTRVFGGGTKLTVLG
B10: GMBC664 (scFv)
scFv: B9 scFv with S7T, G10A, G112S
B11: GMBC670 (scFv)
scFv: B9 scFv with S7T, A23V, T71I, M85V, R113Q, M116L
B12: GMBC690 (scFv)
scFv: B9 scFv with E6Q, L11V, K13Q, G16R, M116L, N169I, K180R
B13: GMBC667 (scFv)
scFv: B9 scFv with E1Q, V5Q, A24G, T28P, T71R, K89N, T90I, R113Q, M116T
B14: GMBC727 (scFv)
scFv: EVQLVESGGDTVKPGGSLRLSCAGSGFTFSDAWMNWVRQAPGKGLEWVGRMKSKGSGGTRDYAAPVNGRFTISRDDSKNTLYLQMNSLNTEDTGVYYCTWDWDFYYGMNVWGRGTLVTVSSGGGGSGGGGSGGGGSQSVLTQPASVSGSPGQSITISCTGTSSDVGGYNYVSWYQQHPGKAPKLMIYEGSKRPSGVSNRFSGSKSGNTASLTISGLQAEDEADYYCSSYTTRSTRVFGGGTKLTVLG
B15: GMBC651 (scFv)
scFv: B9 scFv with K13Q
B16: GMBC686 (scFv)
scFv: B9 scFv with E6Q, R113Q, M116T
B17: GMBC684 (scFv)
scFv: B9 scFv with E1Q, E6Q, T28K, R113Q, M116P, V139A
B18: GMBC649 (scFv)
scFv: B9 scFv with E1Q, E6Q, M116L
B19: GMBC647 (scFv)
scFv: B9 scFv with R113Q, M116T
B20: GMBC693 (scFv)
scFv: B9 scFv with E1Q, R113K, M116L, N207D
B21: GMBC672 (scFv)
scFv: B9 scFv with E1Q, E6Q, R113Q, M116L, G239E
B22: GMBC658 (scFv)
scFv: B9 scFv with E6Q, M116T
B23: GMBC634 (scFv)
scFv: B9 scFv with E1Q, E6Q, R113Q, M116L
B24: GMBC676 (scFv)
scFv: B9 scFv with E6Q, K13Q, D31H, G55A, Q84H, S153P
B25: GMBC654 (scFv)
scFv: B9 scFv with S7T, K13E, G55R, T90I, R113K, M116T
B26: GMBC645 (scFv)
scFv: B9 scFv with A24G, T28K, D61E, T71I, N79D, M116L, K242E
B27: GMBC679 (scFv)
scFv: QVQLVESGGGLVKPGGSLRLSCAASGFTFSDAWMNWVRQAPGKGLEWVGRIKSKGSGGTTDYAAPVKDRFTISRDDSENTLYLQMNSLKTEDTAVYYCTWDHSYYYDMAVWGRGTLVTVSSGGGGSGGGGSGGGGSQSVLTQPASVSGSPGQSITISCTGTSSDVGGYNYVSWYQQHPGKAPKLVIYEGSKRPSGVSNRFSGSKSGNTASLTISGLQAEDEADYYCSSYTTRSTRVFGGGTKLTVLG
B28: GMBC625 (scFv)
scFv: B9 scFv with E6Q, G55R, N79D, L81M, R113Q, S201F
B29: GMBC660 (scFv)
scFv: B9 scFv with E6Q, T28I, R113Q, M116P
B30: GMBC627 (scFv)
scFv: GVQLVQSGGEVKKPGASVRVSCKASRYIFSNYGFSWVRQAPGQGLEWMGSIRNDKGSTNYAQGFQDRLTMTTDTSTNTVFMELRSLSSDDTAVYYCASAPYYYGMGIWGKGTLVTVSSGGGGSGGGGSGGGGSQSVLTQPASVSGSSGQSITISCTGTSSDVGGYNYVSWYQQHPGKAPKLMIYEVGNRPSGVSNRFSGSKSGNTASLTISGLQAEDEADYYCSSYTTRSTRVFGGGTKLTVLG

Target: T1, flag-tagged soluble TL3 (amino acids 105-251 of SEQ ID NO:234) (Homo sapiens (Human), UniProt O75888 105-250)
T1 construct: Heterologous flag-tagged control protein, immobilized in the ELISA; also called flagged tagged TL-3; not shown: Flag tag
T1 sequence: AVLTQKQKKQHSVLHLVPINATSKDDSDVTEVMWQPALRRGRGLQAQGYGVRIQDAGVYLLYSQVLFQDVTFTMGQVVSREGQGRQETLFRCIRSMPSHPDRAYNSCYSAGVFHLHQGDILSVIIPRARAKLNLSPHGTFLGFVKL
Experiment: phage ELISA on immobilized flag-tagged soluble TL3
Procedure: The individual phage isolates in the panel of phage, each phage expressing a unique scFv that bound to flag-tagged GMAD, were tested to ensure specificity for GMAD using an ELISA assay. The scFvs were tested in an ELISA for their ability to bind a heterologous flag-tagged protein, in this case—immobilized soluble TL3 (amino acids 105-251 of SEQ ID NO:234, GenBank Accesion Number NP_{—}003799, also described in International Patent Application Publication Number WO97/33902 and WO2001/96528 which are herein incorporated by reference in their entireties).

Binder	binding result
B1	no binding
B2	no binding
B3	no binding
B4	no binding
B5	no binding
B6	no binding
B7	no binding
B8	no binding
B9	no binding
B10	no binding
B11	no binding
B12	no binding
B13	no binding
B14	no binding
B15	no binding
B16	no binding
B17	no binding
B18	no binding
B19	no binding
B20	no binding
B21	no binding
B22	no binding
B23	no binding
B24	no binding
B25	no binding
B26	no binding
B27	no binding
B28	no binding
B29	no binding
B30	no binding
